Kd data for 5 molecules are collected here from US20230167453, “RNA APTAMERS AND USE THEREOF FOR TREATING CANCER” (Board of Regents, The University of Texas System, published 2023).

Series [1] deals with T1, CD5L (CD5 antigen-like) (Homo sapiens, UniProt O43866 O43866:20-347).
T1 sequence: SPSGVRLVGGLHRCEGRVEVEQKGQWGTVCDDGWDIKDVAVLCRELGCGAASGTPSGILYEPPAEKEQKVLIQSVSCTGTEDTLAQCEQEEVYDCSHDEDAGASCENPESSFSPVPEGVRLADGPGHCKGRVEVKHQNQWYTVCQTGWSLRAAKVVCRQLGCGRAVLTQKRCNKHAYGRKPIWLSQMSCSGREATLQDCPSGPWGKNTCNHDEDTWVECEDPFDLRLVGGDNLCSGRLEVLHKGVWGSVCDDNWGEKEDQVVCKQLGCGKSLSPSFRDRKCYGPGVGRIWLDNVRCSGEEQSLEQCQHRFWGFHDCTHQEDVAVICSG
Nature of the series: MST; pH 7.4, 1 mM MgCl2, 0.1% Tween20. The note with it: tags: His-tagged, Sino Biological 10791-H08H; fluorescently labeled for MST except with Cy5-S76.T; predicted hairpin. As to the method: (§1) Regarding the three sequences of the second selection, S11 and S23 sequences were incubated with constant concentration (1 nM) of labeled CD5L purified recombinant protein (Sino Biological Inc., Beijing, China) or labeled VEGF scrambled protein used as negative control (R&D System). S11 and S23 were diluted 1:1 (from 15000 to 0.05 nM) in binding buffer (pH 7.4, 1 mM MgCl2, 0.1% Tween20). S76 sequence was diluted 1:1 in Tris-buffered saline (TBS) from 1000 nM to 0.03 nM. S76.T was labeled with Cy5 and the concentration was kept constant at 2 nM. CD5L was diluted from 2000 nM to 0.06 nM in 50 mM Tris-HCl pH 7.8, 150 mM NaCl, 0.05% Tween20. 5 μl of each dilution step were mixed with 5 μl of the labeled CD5L or VEGF. The final reaction mixture contained a respective amount of aptamer sequences and constant 1 nM labeled CD5L or VEGF.

Series [2] has as its target T1, CD5L (CD5 antigen-like). The series can be described thus: MST; PBS pH 7.4, 1 mM MgCl2, 0.05% Tween20. The following applies: tags: His-tagged, Sino Biological 10791-H08H; fluorescently labeled for MST except with Cy5-S76.T; three predicted hairpins followed by single-strand ends. Here is the method: A serial dilution of S5, S47, S63 and S72 was prepared in specific buffer composed by PBS pH 7.4, 1 mM of MgCl2 and 0.05% Tween20. The highest concentration used was 18000 nM and the lowest 0.54 nM. 4 μl of each dilution step were mixed with 4 μl of the labeled molecule CD5L purified recombinant protein (Sino Biological Inc., Beijing, China) or VEGF scrambled protein used as negative control (R&D System) (constant concentration of 12.5 nM).

Series [3] deals with T1, CD5L (CD5 antigen-like). The series can be described thus: MST; TBS; 1 nM labeled CD5L. The note with it: tags: His-tagged, Sino Biological 10791-H08H; fluorescently labeled for MST except with Cy5-S76.T; predicted hairpin. As to the method: as §1
The target of series [4] is T1, CD5L (CD5 antigen-like). The series can be described thus: MST; 50 mM Tris-HCl pH 7.8, 150 mM NaCl, 10 mM MgCl2, 0.05% Tween-20; 2 nM Cy5-S76.T. The note with it: tags: His-tagged, Sino Biological 10791-H08H; fluorescently labeled for MST except with Cy5-S76.T; label: Cy5 (MST); hairpin. As to the method:
For Cy5 labeled S76.T, a serial dilution of CD5L was prepared in the buffer composed by 50 mM Tris-HCl pH7.8, 150 mM NaCl, 10 mM MgCl2, 0.05 Tween-20. The highest concentration of CD5L was 2000 nM and the lowest 0.06 nM. 4 μl of each dilution step were mixed with 4 μl of the Cy5 labeled S76 truncated (4 nM stock). The final reaction mixture, which was filled in standard capillaries, contained a respective amount of CD5L (max. conc. 1000 nM, min conc. 0.03 nM) and constant 2 nM labeled S76 truncated MST measurement was obtained using Monolith NT.115 (NanoTemper Technologies GmbH, Munich, Germany) with standard capillaries. KD was determined as described by (Stoltenburg et al., 2015).

B1: S11 (ssRNA)
RNA: AGACAAGAAUAAACGCUCAAUUAUCGGAGAGGCCGAACAGAUACUUCGUUAGACACCUUGCAGCGUUCGACAGGAGGC
modifications: 2'-F pyrimidines
The term Kd denotes the free concentration of one partner at which half of the binding sites on the other are occupied at equilibrium, for simple one-to-one binding. For B1, the Kd in the series with CD5L (CD5 antigen-like) [1] is 59.2 nM.

B2: S23 (ssRNA)
RNA: AGACAAGAAUAAACGCUCAAAAAGAGAGAAGGAUAAGAACCAUCAAAAAGAGAGAGCAGAGCCAGAUUCGACAGGAGGCUCACAACAGGC
modifications: 2'-F pyrimidines
Consider B2, for which, in the series with CD5L (CD5 antigen-like) [1], the Kd is 92.1 nM.

B3: S5 (ssRNA)
RNA: AGACAAGAAUAAACGCUCAAGCGAAGGUGUGACCACAAACCACAUAAAGGCAAGGUCGCGCCGCGUUCGACAGGAGGCUCACAACAGGC
modifications: 2'-F pyrimidines
For B3, the Kd with CD5L (CD5 antigen-like) [2] was 556 nM.

B4: S76 (ssRNA)
RNA: AGACAAGAAUAAACGCUCAAUUAUCGGAGAGGCCGAACAGAUACUUCGUUAGACAGGUUGCAGCGUUCGACAGGAGGCUCACAACAGGC
modifications: 2'-F pyrimidines
In the case of B4, in the series with CD5L (CD5 antigen-like) [3], the Kd was 2.2 nM.

On to AGGUUGCAGCGUUCGACAGGAGGCUCACAACAG (ssRNA, 2'-F pyrimidines) [S76.T], for which, in the series with CD5L (CD5 antigen-like) [4], the affinity, expressed as Kd, was 10.1 nM.
